Blank lines part the entries; values can stand above or below the binder they belong to. *1 amine or outer side, *2 acyl side, *3 side chain or, on linkers, in order; H or OH if unused. Where no end group is shown, it is not given here. [ ]: non-standard residue; d: D form. The star is where a group is joined. 3‑pTza = 3-phosphotriazolyl alanine (also given as 3-phosphoryl-triazolylalanine); 3‑pHis = 3-phosphohistidine, O=C([C@H](Cc1cn(P(=O)(O)O)cn1)N[*:1])[*:2]; Biotin = O=C1N[C@H]2[C@H](CS[C@H]2CCCCC(=O)*)N1; Ahx = NCCCCCC(=O)O
Experiments:
[1] = target: 3-pTza peptide (Biotin-AminocaproicAcid-A.G.A.G.3-pTza.A.G.A.G); assay: BLI; biotinylated peptide captured on streptavidin biosensors at 20 nM; IgG in solution at 20-200 nM; Octet HTX; 1x HBS-T, 1% BSA
[2] = target: T1, 3-pHis form of ACLY (120 kDa) (Homo sapiens (HEK293T, endogenous), UniProt P53396, 3-phosphohistidine (site not stated)); assay: immunoblot; HEK293T whole cell lysate, 30 µg, alkaline 12% SDS-PAGE and alkaline blotting at 4 °C; 0.5 µg/mL IgG as primary antibody, 1 h at room temperature; HRP secondary antibody; settings: one partner purified
T1 construct: ACLY (ATP-citrate lyase), 120 kDa band on the immunoblot; source: endogenous, HEK293T lysate

[3] = target: T2, 3-pHis form of the a-subunit of SCS (30 kDa) (Homo sapiens (HEK293T, endogenous), UniProt P53597, 3-phosphohistidine (site not stated)); assay: as above; settings: one partner purified
T2 construct: alpha subunit of SCS (succinyl-CoA synthetase), 30 kDa band on the immunoblot; source: endogenous, HEK293T lysate

[4] = target: 3-pTza peptide (Biotin-AminocaproicAcid-A.G.A.G.3-pTza.A.G.A.G); assay: BLI; Octet HTX; biotinylated peptides captured on streptavidin biosensors at 20 nM; IgG in solution, 20-200 nM; 1x HBS-T, 1% BSA
[5] = target: 3-pTza peptide (Biotin-AminocaproicAcid-A.G.A.G.3-pTza.A.G.A.G); assay: BLI; Octet RED96e; biotinylated peptides captured on streptavidin biosensors at 20 nM; Fab in solution, 20-200 nM; 1x HBS-T, 1% BSA
[6] = target: T3, 3-pHis peptide (Biotin-AminocaproicAcid-A.G.A.G.H.A.G.A.G phosphorylated by phosphoramidate); assay: as above
T3 construct: His-peptide, phosphorylated on His5; the phosphoramidate reaction gives a mixture of non-phosphorylated, 1-pHis, 3-pHis and di-pHis peptide; also called Biotinylated ACLYana-3-pHis; ACLYana-pHis; source: synthetic peptide, phosphorylated with potassium phosphoramidate; not shown: biotin, N-terminal, kept
T3 peptide: {Biotin-Ahx}-AGAG[3‑pHis]AGAG

[7] = target: T3, 3-pHis peptide …; assay: BLI; biotinylated peptide captured on streptavidin biosensors at 20 nM; IgG in solution at 20-200 nM; Octet HTX; 1x HBS-T, 1% BSA; settings: both partners purified
[8] = target: T4, 3-pTza peptide (Biotin-AminocaproicAcid-A.G.A.G.3-pTza.A.G.A.G); assay: as above; settings: both partners purified
T4 chain: {Biotin-Ahx}-AGAG[3‑pTza]AGAG

T2 sequence (P53597 41-346): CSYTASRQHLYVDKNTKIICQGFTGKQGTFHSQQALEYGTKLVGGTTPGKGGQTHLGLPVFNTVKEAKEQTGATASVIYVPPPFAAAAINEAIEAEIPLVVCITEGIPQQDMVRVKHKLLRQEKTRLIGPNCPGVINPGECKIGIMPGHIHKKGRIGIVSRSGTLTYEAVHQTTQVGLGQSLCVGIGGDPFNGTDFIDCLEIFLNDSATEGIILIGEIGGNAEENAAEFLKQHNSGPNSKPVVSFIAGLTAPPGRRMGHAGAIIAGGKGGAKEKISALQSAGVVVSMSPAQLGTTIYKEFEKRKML
T1 sequence (P53396 whole entry): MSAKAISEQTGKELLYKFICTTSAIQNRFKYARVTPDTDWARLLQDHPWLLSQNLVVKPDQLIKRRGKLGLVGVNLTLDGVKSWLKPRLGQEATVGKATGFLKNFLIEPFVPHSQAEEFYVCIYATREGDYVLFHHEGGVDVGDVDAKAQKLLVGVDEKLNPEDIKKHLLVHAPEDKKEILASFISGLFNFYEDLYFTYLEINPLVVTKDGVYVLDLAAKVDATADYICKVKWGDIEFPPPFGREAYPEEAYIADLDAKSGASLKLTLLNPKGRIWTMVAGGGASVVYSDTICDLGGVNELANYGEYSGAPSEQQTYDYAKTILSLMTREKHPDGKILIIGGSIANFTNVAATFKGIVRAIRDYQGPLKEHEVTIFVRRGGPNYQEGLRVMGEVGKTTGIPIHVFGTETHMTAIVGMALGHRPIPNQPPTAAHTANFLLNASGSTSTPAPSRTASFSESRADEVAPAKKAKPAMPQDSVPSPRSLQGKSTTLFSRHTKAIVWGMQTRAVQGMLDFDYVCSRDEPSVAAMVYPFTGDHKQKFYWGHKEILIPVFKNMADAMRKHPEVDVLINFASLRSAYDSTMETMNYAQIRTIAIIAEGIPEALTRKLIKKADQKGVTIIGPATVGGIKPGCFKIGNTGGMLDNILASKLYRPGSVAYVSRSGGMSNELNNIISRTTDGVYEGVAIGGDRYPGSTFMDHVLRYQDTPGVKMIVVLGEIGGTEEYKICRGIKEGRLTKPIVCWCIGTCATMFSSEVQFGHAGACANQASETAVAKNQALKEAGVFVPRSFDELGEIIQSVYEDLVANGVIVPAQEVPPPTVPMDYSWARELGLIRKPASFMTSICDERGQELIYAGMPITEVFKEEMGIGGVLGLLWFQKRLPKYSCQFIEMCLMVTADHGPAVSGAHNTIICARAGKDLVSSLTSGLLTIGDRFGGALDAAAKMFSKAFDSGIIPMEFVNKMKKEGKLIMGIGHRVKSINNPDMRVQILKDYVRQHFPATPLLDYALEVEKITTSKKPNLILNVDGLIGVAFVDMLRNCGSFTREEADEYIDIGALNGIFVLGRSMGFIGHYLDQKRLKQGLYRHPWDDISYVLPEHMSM

B1: hSC44.1 IgG (antibody, V domains shown)
VH: EVQLVESGGGLVQPGGSLRLSCTASGFSIDSYGFSWVRQAPGKGLEHIGYLTAGGRAFYASWAKSRSTITRNTNENTVTLKMNSLRAEDTAVYYCAKLGTGSPIAIWGQGTLVTVSS
VL: DIQMTQSPSSLSASVGDRVTITCRASQSVWRNKNVAWYQQKPGKAPKRLIYAIASLYSGVPSRFSGSGSGTDFTLTISSLQPEDFATYYCVGHYGSENDAYYAFGQGTKVEIK
Kd [1]: 0.588 nM
koff [1]: 8.32e-05 s⁻¹
kon [1]: 141000 M⁻¹ s⁻¹

B3: hSC44.8 IgG (antibody, V domains shown)
VH: EVQLVESGGGLVQPGGSLRLSCTASGFSIDSYGFSWVRQAPGKGLEHIGYLTAGGRAFYASWAKSRSTITRNTNENTVTLKMNSLRAEDTAVYYCAKIGTGSRVAIWG
VL: DIQMTQSPSSLSASVGDRVTITCRASQSVWRNKNVAWYQQKPGKAPKRLIYAIASLYSGVPSRFSGSGSGTDFTLTISSLQPEDFATYYCVGHYGSENDAYYAFGQGTKVEIK
Kd [1]: 0.185 nM
koff [1]: 6.66e-05 s⁻¹
kon [1]: 359000 M⁻¹ s⁻¹

B4: hSC44.20 IgG (antibody, V domains shown)
VH: EVQLVESGGGLVQPGGSLRLSCTASGFSIDSYGFSWVRQAPGKGLEHIGYLTAGGRAFYASWAKSRSTITRNTNENTVTLKMNSLRAEDTAVYYCAKLGTGSRFAIWGQGTLVTVSS
VL: DIQMTQSPSSLSASVGDRVTITCRASQSVWRNKNVAWYQQKPGKAPKRLIYAIASLYSGVPSRFSGSGSGTDFTLTISSLQPEDFATYYCVGHYGSENDAYYAFGQGTKVEIK
notes: as the heavy chain of m2 with the stated CDR-H3 changes (Kabat numbering); as the light chain of m1; source: Expi293, transfected, purified (CaptoL, SEC); copies: 2 + 2
binding result [2]: binds
binding result [3]: binds
Kd [4]: < 0.001 nM

B6: hSC44.13 IgG (antibody, V domains shown)
VH: EVQLVESGGGLVQPGGSLRLSCTASGFSIDSYGFSWVRQAPGKGLEHIGYLTAGGRAFYASWAKSRSTITRNTNENTVTLKMNSLRAEDTAVYYCAKLGTGSPVAIWG
VL: DIQMTQSPSSLSASVGDRVTITCRASQSVWRNKNVAWYQQKPGKAPKRLIYAIASLYSGVPSRFSGSGSGTDFTLTISSLQPEDFATYYCVGHYGSENDAYYAFGQGTKVEIK
Kd [1]: 0.405 nM
koff [1]: 7.37e-05 s⁻¹
kon [1]: 182000 M⁻¹ s⁻¹

B9: hSC44.3 IgG (antibody, V domains shown)
VH: EVQLVESGGGLVQPGGSLRLSCTASGFSIDSYGFSWVRQAPGKGLEHIGYLTAGGRAFYASWAKSRSTITRNTNENTVTLKMNSLRAEDTAVYYCAKIGSGSPVAIWG
VL: DIQMTQSPSSLSASVGDRVTITCRASQSVWRNKNVAWYQQKPGKAPKRLIYAIASLYSGVPSRFSGSGSGTDFTLTISSLQPEDFATYYCVGHYGSENDAYYAFGQGTKVEIK
Kd [1]: 0.352 nM
koff [1]: 1.43e-05 s⁻¹
kon [1]: 40700 M⁻¹ s⁻¹

B15: rSC44 IgG (antibody, V domains shown)
VH: QSVKESGRGLVQPGGSLTLTCTASGFSIDSYGFSWVRQAPGKGLEHIGYLTAGGRAFYASWAKSRSTITRNTNENTVTLKMTSLTAADTATYFCAKLGSGNPVAIWGPGTLVTVSS
VL: QVLTQTPSFTSAAVGGTVTINCQSSQSVWRNKNLAWYQQKPGQPPKRLIYAIATLDSGVPSRFSGSGSGTQFTLTISDVQCDDAATYYCVGHYGSENDAYYAFGGGTEVVVK
notes: rabbit SC44-8 IgG heavy chain; rabbit IgG constant region; as the light chain of m9; Rabbit IgG; also called SC44-8; rSC44-8; copies: 2 + 2
binding result [2]: binds
binding result [3]: binds

Now from value to binder:

Kd [1]: 0.495 nM
koff [1]: 4.49e-05 s⁻¹
kon [1]: 90600 M⁻¹ s⁻¹
B2: hSC44.22 IgG (antibody, V domains shown)
VH: EVQLVESGGGLVQPGGSLRLSCTASGFSIDSYGFSWVRQAPGKGLEHIGYLTAGGRAFYASWAKSRSTITRNTNENTVTLKMNSLRAEDTAVYYCAKLGTGTPVAIWG
VL: DIQMTQSPSSLSASVGDRVTITCRASQSVWRNKNVAWYQQKPGKAPKRLIYAIASLYSGVPSRFSGSGSGTDFTLTISSLQPEDFATYYCVGHYGSENDAYYAFGQGTKVEIK

Kd [1]: 1.21 nM
koff [1]: 3e-05 s⁻¹
kon [1]: 24900 M⁻¹ s⁻¹
B5: hSC44.28 IgG (antibody, V domains shown)
VH: EVQLVESGGGLVQPGGSLRLSCTASGFSIDSYGFSWVRQAPGKGLEHIGYLTAGGRAFYASWAKSRSTITRNTNENTVTLKMNSLRAEDTAVYYCAKLGTGSPLAIWG
VL: DIQMTQSPSSLSASVGDRVTITCRASQSVWRNKFVAWYQQKPGKAPKRLIYAIASLYSGVPSRFSGSGSGTDFTLTISSLQPEDFATYYCVGHYGSENDAYYAFGQGTKVEIK

Kd [5]: 0.892 nM
koff [5]: 0.000177 s⁻¹
kon [5]: 199000 M⁻¹ s⁻¹
Kd [6]: 6.63 nM
koff [6]: 0.000697 s⁻¹
kon [6]: 105000 M⁻¹ s⁻¹
B7: hSC44.20.N32F^L Fab (Fab, V domains shown)
VH: EVQLVESGGGLVQPGGSLRLSCTASGFSIDSYGFSWVRQAPGKGLEHIGYLTAGGRAFYASWAKSRSTITRNTNENTVTLKMNSLRAEDTAVYYCAKLGTGSRFAIWGQGTLVTVSS
VL: DIQMTQSPSSLSASVGDRVTITCRASQSVWRNKFVAWYQQKPGKAPKRLIYAIASLYSGVPSRFSGSGSGTDFTLTISSLQPEDFATYYCVGHYGSENDAYYAFGQGTKVEIK

Kd [5]: 0.83 nM
koff [5]: 0.000186 s⁻¹
kon [5]: 224000 M⁻¹ s⁻¹
Kd [6]: 5.11 nM
koff [6]: 0.00066 s⁻¹
kon [6]: 129000 M⁻¹ s⁻¹
B8: hSC44.20.N32Y^L Fab (Fab, V domains shown)
VH: EVQLVESGGGLVQPGGSLRLSCTASGFSIDSYGFSWVRQAPGKGLEHIGYLTAGGRAFYASWAKSRSTITRNTNENTVTLKMNSLRAEDTAVYYCAKLGTGSRFAIWGQGTLVTVSS
VL: DIQMTQSPSSLSASVGDRVTITCRASQSVWRNKYVAWYQQKPGKAPKRLIYAIASLYSGVPSRFSGSGSGTDFTLTISSLQPEDFATYYCVGHYGSENDAYYAFGQGTKVEIK

Kd [1]: 2.71 nM
koff [1]: 3.98e-05 s⁻¹
kon [1]: 14700 M⁻¹ s⁻¹
B10: hSC44.31 IgG (antibody, V domains shown)
VH: EVQLVESGGGLVQPGGSLRLSCTASGFSIDSYGFSWVRQAPGKGLEHIGYLTAGGRAFYASWAKSRSTITRNTNENTVTLKMNSLRAEDTAVYYCAKLGTGTPFAIWGQGTLVTVSS
VL: DIQMTQSPSSLSASVGDRVTITCRASQSVWRNKYVAWYQQKPGKAPKRLIYAIASLYSGVPSRFSGSGSGTDFTLTISSLQPEDFATYYCVGHYGSENDAYYAFGQGTKVEIK

Kd [5]: 0.421 nM
koff [5]: 0.000103 s⁻¹
kon [5]: 245000 M⁻¹ s⁻¹
Kd [6]: 17.5 nM
koff [6]: 0.0042 s⁻¹
kon [6]: 240000 M⁻¹ s⁻¹
B11: hSC44.20 Fab (Fab, V domains shown)
VH: EVQLVESGGGLVQPGGSLRLSCTASGFSIDSYGFSWVRQAPGKGLEHIGYLTAGGRAFYASWAKSRSTITRNTNENTVTLKMNSLRAEDTAVYYCAKLGTGSRFAIWGQGTLVTVSS
VL: DIQMTQSPSSLSASVGDRVTITCRASQSVWRNKNVAWYQQKPGKAPKRLIYAIASLYSGVPSRFSGSGSGTDFTLTISSLQPEDFATYYCVGHYGSENDAYYAFGQGTKVEIK

Kd [7]: 1.68 nM
koff [7]: 1.64e-05 s⁻¹
kon [7]: 13900 M⁻¹ s⁻¹
Kd [8]: 1.54 nM
koff [8]: 5.73e-05 s⁻¹
kon [8]: 37300 M⁻¹ s⁻¹
B12: hSC44.20.N32F^L IgG (antibody, V domains shown)
VH: EVQLVESGGGLVQPGGSLRLSCTASGFSIDSYGFSWVRQAPGKGLEHIGYLTAGGRAFYASWAKSRSTITRNTNENTVTLKMNSLRAEDTAVYYCAKLGTGSRFAIWGQGTLVTVSS
VL: DIQLTQSPSSLSASVGDRVTITCRASQSVWRNKFVAWYQQKPGKAPKRLIYAIASLYSGVPSRFSGSGSGTDFTLTISSLQPEDFATYYCVGHYGSENDAYYAFGQGTKVEIK
notes: human IgG1, kappa light chain

koff [7]: 2.61e-05 s⁻¹
kon [7]: 8880 M⁻¹ s⁻¹
koff [8]: < 1e-07 s⁻¹
kon [8]: 35100 M⁻¹ s⁻¹
B13: hSC44.20.N32Y^L IgG (antibody, V domains shown)
VH: EVQLVESGGGLVQPGGSLRLSCTASGFSIDSYGFSWVRQAPGKGLEHIGYLTAGGRAFYASWAKSRSTITRNTNENTVTLKMNSLRAEDTAVYYCAKLGTGSRFAIWGQGTLVTVSS
VL: DIQLTQSPSSLSASVGDRVTITCRASQSVWRNKYVAWYQQKPGKAPKRLIYAIASLYSGVPSRFSGSGSGTDFTLTISSLQPEDFATYYCVGHYGSENDAYYAFGQGTKVEIK
notes: human IgG1, kappa light chain

Kd [5]: 0.668 nM
koff [5]: 0.000135 s⁻¹
kon [5]: 203000 M⁻¹ s⁻¹
Kd [6]: 48.5 nM
koff [6]: 0.00591 s⁻¹
kon [6]: 122000 M⁻¹ s⁻¹
B14: rSC44 Fab (Fab, V domains shown)
VH: QSVKESGRGLVQPGGSLTLTCTASGFSIDSYGFSWVRQAPGKGLEHIGYLTAGGRAFYASWAKSRSTITRNTNENTVTLKMTSLTAADTATYFCAKLGSGNPVAIWGPGTLVTVSS
VL: QVLTQTPSFTSAAVGGTVTINCQSSQSVWRNKNLAWYQQKPGQPPKRLIYAIATLDSGVPSRFSGSGSGTQFTLTISDVQCDDAATYYCVGHYGSENDAYYAFGGGTEVVVK

From article PMC12660843, “Using phage display for rational engineering of a higher-affinity humanized 3’ phosphohistidine-specific antibody” (Communications Chemistry, 2025)
